In patent US10500274B2, “Methods for reducing viral load in HIV-1 infected patients” (CytoDyn Inc., priority 2008, dated 2019):
“And” between values parts separate entries of the source, which are not always exact repeats. Equal values may be shown once. Read-outs that look alike come from different tables or passages of the source.

What was measured:
CCR5 lymphocytes = assay: Phase 1a clinical study: coating of CCR5 cells by PRO 140; assay type: in vivo, human; details: single IV 2 mg/kg
Experimental: Individuals were treated in sequential, dose-rising cohorts of 5 subjects (4 active and 1 placebo) each and evaluated for up to 120 days post-treatment. […] Safety assessments consisted of monitoring the following: vital signs (blood pressure, pulse, temperature, etc; hematology (hemoglobin, hematocrit, leukocytes, platelets, etc.); serum chemistries (AST/ALT, alkaline phosphatase, BUN, creatinine, etc.); urinalysis (pH, specific gravity, protein, glucose, leukocytes, etc.); and ECGs (12-lead).
Whole blood specimens were combined separately with the indicated phycoerythrin-labeled anti-CCR5 antibodies or with appropriate isotype-control antibodies. Erythocytes were lysed and leukocytes were stabilized using the ImmunoPrep Reagent System (Beckman Coulter), and the cells were analyzed on a TQ Prep™ flow cytometry workstation (Beckman Coulter). Data were expressed as the percent of CCR5 cells relative to all cells gated in the analysis.

[1] = human, in vivo; for Peak serum concentration (average) / mean time to last observation (tlast) / volume of distribution (average): iv
Description: PK metrics were estimated using non-compartmental methods.

[2] = set-up: species or system human; details: in vivo, sc
Description: Subjects were followed for a total of 58 days for safety and antiviral effects. Entry criteria included: HIV-1 RNA >5,000 copies/mL, R5 virus, […], no antiretroviral therapy <12 weeks.

[3] = system: HIV-1JR-FL envelope-mediated membrane fusion; assay: microbe, parasite or virus in culture; assay type: cell-based; details: inhibitor alone, experiment depicted in FIG. 15A; read-out: IC90
[4] = system: HIV-1 isolates of study subjects; assay: PhenoSense HIV Entry assay on viruses of Phase 1b subjects; assay type: cell-based
Experimental: (§1) Plasma HIV-1 RNA levels were determined with the Cobas Amplicor HIV-1 Monitor Test (Version 1.5; Roche Diagnostics, Branchburg, N.J.). Samples <400 copies/mL were re-analyzed with the Ultrasensitive Monitor Method. Co-receptor tropism was determined at screening and Days 1, 8, 29 and 59 (Trofile™ assay, Monogram Biosciences, Inc., South San Francisco, Calif.). Viral susceptibility was determined on Days 1 and 59 with the Phenosense™ HIV Entry assay. […] Maximum percent inhibitions were determined from the plateaus of the inhibition curves. The reference virus was HIV-192HT594, a low-passage dual-tropic isolate. GeneSeq™ (Monogram Biosciences) was used to assess HIV-1 subtype and genotypic susceptibility to protease and reverse transcriptase inhibitors.

[5] = system: CCR5+ and CD4+ lymphocytes; assay type: in vivo, human
Experimental: CCR5^+ and CD4^+ lymphocytes were measured by flow cytometry.

R5-tropic HIV-1 = assay: Phase 1b clinical study: plasma HIV-1 RNA; assay type: in vivo, human
Experimental: as §1, with “assay. Results obtained with CCR5^+ target cells were reported as Fold Change or relative EC50 (rEC50), which was defined as (EC50 test isolate)/(EC50 reference virus).” for “assay.”
Statistical analyses were performed on log10 transformed HIV-1 RNA data, and changes were calculated relative to baseline (Day 1 pre-dose). Treatment and placebo groups were compared using an analysis of variance (ANOVA) model. […] In addition, 2-sided paired t-tests were used to evaluate changes from baseline in CCR5^+ lymphocytes. Where necessary, end-of-study lymphocyte data were used in place of missing baseline data. […] AUC∞ values for individual subjects were used in the model. Clinical Trial Design and Study Results:
The subjects comprised 31 males and 8 females, and their median age, CD4 counts and plasma HIV-1 RNA levels at baseline were 40.3 years, 484 cells/μL and 26,900 copies/mL, respectively Fifteen subjects reported prior use of antiretroviral therapy, and seven were co-infected with hepatitis C virus (HCV). All viruses were subtype B, and baseline genotypic resistance to existing drugs was limited to single-class resistance in two subjects in the 2 mg/kg group and a single subject in each of the other groups. The mean infusion time was 36 minutes, and all subjects completed the 58-day follow-up period. All patients were screened prior to the study for the presence of virus that utilizes only CCR5 as the entry coreceptor, i.e., CCR5-tropic virus.

B1: PRO 140: humanized IgG4,κ anti-CCR5 mAb, humanized version of the murine mAb PA14 (antibody, chains of the INN, looked up, V domains shown)
VH: EVQLVESGGGLVKPGGSLRLSCAASGYTFSNYWIGWVRQAPGKGLEWIGDIYPGGNYIRNNEKFKDKTTLSADTSKNTAYLQMNSLKTEDTAVYYCGSSFGSNYVFAWFTYWGQGTLVTVSS
VL: DIVMTQSPLSLPVTPGEPASISCRSSQRLLSSYGHTYLHWYLQKPGQSPQLLIYEVSNRFSGVPDRFSGSGSGTDFTLKISRVEAEDVGVYYCSQSTHVPLTFGQGTKVEIK
coating of CCR5 lymphocytes (in words) (CCR5 lymphocytes): effectively coats CCR5 lymphocytes without cellular depletion for two weeks | time of peak concentrations post-infusion [1]: 30 to 60 min | Peak serum concentration (average) ([1]; 0.5 mg/kg): 13 µg/mL | mean time to last observation (tlast) ([1]; 0.5 mg/kg): 6.1 days | volume of distribution (average) ([1]; 0.5 mg/kg): 8.4 L | Peak serum concentration (average) ([1]; 2 mg/kg): 61 µg/mL | mean time to last observation (tlast) ([1]; 2 mg/kg): 18.2 days | volume of distribution (average) ([1]; 2 mg/kg): 13.8 L | Peak serum concentration (average) ([1]; 5 mg/kg): 173 µg/mL | mean time to last observation (tlast) ([1]; 5 mg/kg): 18.9 days | volume of distribution (average) ([1]; 5 mg/kg): 7.1 L | administration site reactions [2]: mild in intensity and resolved within one to two days | drug-related serious adverse events [2]: no drug-related serious adverse events | tolerability [2]: generally well tolerated compared to placebo | IC90 [3]: 111 nM | change in viral susceptibility, baseline to day 59 (in words) ([4]; IC50 or Fold Change): No change from baseline to day 59 | Mean Maximum Percent Inhibition (MPI) ([4]; baseline): 99% and 98.9±1.5% | variation of baseline rIC50 values across the 39 subjects ([4]; baseline): 6.2 fold | Mean rIC50 (IC50 test isolate / IC50 reference virus) ([4]; baseline, viruses of PRO 140-treated subjects): 2.0 (range: 0.83-5.1) | Mean Maximum Percent Inhibition (MPI) ([4]; post-treatment (end of study)): 99% and 99.0±1.0% | duration of maximal masking or coating of CCR5 ([5]; 0.5 mg/kg): 1 week | average increase in CD4+ lymphocytes ([5]; 5 mg/kg, Day 8): 129 cells/mm^3 | mean change in CD4+ cells over baseline ([5]; 5 mg/kg, Day 8): +129 cells/μL | mean change in CD4+ cells over baseline ([5]; 5 mg/kg, Day 15): +96 cells/μL | mean change in CD4+ cells over baseline ([5]; 5 mg/kg, Day 22): +83 cells/μL | mean change in CD4+ cells over baseline ([5]; 5 mg/kg, Days 29 and 59): < +10 cells/μL | change in CD4+ cells (in words) ([5]; 0.5 and 2 mg/kg groups): No significant change | duration of maximal (high-level) coating of CCR5 ([5]; 2 and 5 mg/kg (higher dose levels)): 2 weeks | duration of significant (p<0.05) coating of CCR5+ lymphocytes ([5]; all PRO 140 treatment groups): 2-4 weeks | depletion of CCR5+ cells ([5]; human, in vivo): no depletion of CCR5^+ cells | AUC50, exposure required to achieve 50% of Emax (R5-tropic HIV-1; Emax model): 43.7 ± 15.6 mg·days/L | Mean HIV-1 RNA reduction (maximum) (R5-tropic HIV-1; HIV-infected adults, single IV 0.5 mg/kg): 0.58 log10 | day by which viral loads returned to baseline (R5-tropic HIV-1; all treatment groups): ≤ 29 days | lowest documented HIV-1 RNA level on study (R5-tropic HIV-1; human, in vivo): 61 copies/mL | Log10 change from baseline in HIV-1 RNA: Mean (±SD) of individual nadirs (R5-tropic HIV-1; single IV 0.5 mg/kg): −0.58 ± 0.30 log10 | antiviral response rate (subjects with ≥1.0 log10 reduction at any time) (R5-tropic HIV-1; single IV 0.5 mg/kg): 10% | mean log10 decline in viral load at Day 10 (R5-tropic HIV-1; single IV 0.5 mg/kg): 0.37 log10 | Log10 change from baseline in HIV-1 RNA: Mean (±SD) at Day 10 (R5-tropic HIV-1; single IV 0.5 mg/kg, 0.5 mg/kg): −0.37 log10 and −0.37 ± 0.54 log10 | Log10 change from baseline in HIV-1 RNA: Mean (±SD) of individual nadirs (R5-tropic HIV-1; single IV 2 mg/kg): −1.20 ± 0.63 log10 | Mean HIV-1 RNA reduction (maximum) (R5-tropic HIV-1; single IV 2 mg/kg): 1.20 log10 | antiviral response rate (subjects with ≥1.0 log10 reduction at any time) (R5-tropic HIV-1; single IV 2 mg/kg): 60% | mean log10 decline in viral load at Day 10 (R5-tropic HIV-1; single IV 2 mg/kg): 1.04 log10 | Individual HIV-1 RNA reductions (ranged to) (R5-tropic HIV-1; single IV 2 mg/kg, 2 mg/kg): up to 2.5 log10 and ≤ 2.5 log10 | Log10 change from baseline in HIV-1 RNA: Mean (±SD) at Day 10 (R5-tropic HIV-1; single IV 2 mg/kg, 2 mg/kg): −1.04 log10 and −1.04 ± 0.45 log10 | Mean HIV-1 RNA reduction (average maximum decrease of viral load) (R5-tropic HIV-1; single IV 5 mg/kg): 1.83 log10 | antiviral response rate (subjects with ≥1.0 log10 reduction at any time) (R5-tropic HIV-1; single IV 5 mg/kg): 100% | day on which mean viral load reductions of 1 log10 were first observed (R5-tropic HIV-1; single IV 5 mg/kg): 5 Day | mean log10 decline in viral load at Day 10 (nine days post-treatment) (R5-tropic HIV-1; single IV 5 mg/kg): 1.70 log10 | persistence of mean 1 log10 viral load reduction post-treatment (R5-tropic HIV-1; single IV 5 mg/kg): 2-3 weeks | viral load change at day 22 (R5-tropic HIV-1; single IV 5 mg/kg): −0.73 log | Individual HIV-1 RNA reductions (ranged to) (R5-tropic HIV-1; single IV 5 mg/kg, 5 mg/kg): up to 2.5 log10 and ≤ 2.5 log10 | Log10 change from baseline in HIV-1 RNA: Mean (±SD) at Day 10 (R5-tropic HIV-1; single IV 5 mg/kg, 5 mg/kg): −1.70 log10 and −1.70 ± 0.49 log10 | Log10 change from baseline in HIV-1 RNA: Mean (±SD) of individual nadirs (R5-tropic HIV-1; single IV 5 mg/kg, 5 mg/kg): −1.8 log10 and −1.84 ± 0.41 log10
